Data published in article PMC6402988 (Nature structural & molecular biology, 2019).
Where a chain is given by its changes, count along the chain named.

B1: ADI-15946 mutant Y100AA (antibody, V domains shown)
VH: EVQLVESGGGLVKPGGSLRLSCAASGFTFSNAWMSWVRQAPGKGLEWVGRIKSKTDGGTIDYAAPVKGRFTISRDDSKNTVYLQMTSLKTEDTAVYYCTTYTEDMRAFDWLLRGGETFDYWGQGTLVTVSS
VL: DIRLTQSPSSLSASVGDRVTITCRASHYISTYLNWYQQKPGKAPKLLIYAASNLQSGVPSRFSGSGFGTDFSLTISSLQPEDFATYHCQQSYSTPGRYTFGQGTKVEIK
B2: ADI-15946 IgG (antibody, V domains shown)
VH: B1 VH with A107Y
VL: B1 VL
B3: 46M1 (antibody, V domains shown)
VH: B1 VH with R106A, A107Y
VL: B1 VL

Columns and labels:
[1] = target: SUDV GP ectodomain (Sudan ebolavirus; strain not named for …, UniProt Q66814); test: ELISA
[2] = target: rVSV-EBOV GP (wild type) (Zaire ebolavirus (EBOV), UniProt Q05320); test: ELISA

| Binder | binding result [1] | binding result [2] |
| --- | --- | --- |
| B1 | binds | – |
| B2 | binds | binds |
| B3 | binds | – |
